Assays:
[1] = molecular target: TREM-1-interacting protein on PGN-stimulated neutrophils; assay: flow cytometry competition: 2 µg/ml TREM-1 tetramer as probe with 100 µg/ml DCIR COMP; did not compete
[2] = molecular target: Type II 1.0 PGLYRP1 on HEK293 6E cells (human); assay: cell-based or functional assay
[3] = molecular target: TREM-1-interacting protein on PGN-stimulated neutrophils; assay: flow cytometry competition: 2 µg/ml TREM-1 tetramer as probe with 100 µg/ml TREM COMP
[4] = molecular target: human TREM-1 on BWZ.36/hTREM-1:DAP12:NFAT-LacZ reporter cells (human) (UniProt Q9NP99); assay: cell-based or functional assay
Sequence of human TREM-1 on BWZ.36/hTREM-1:DAP12:NFAT-LacZ reporter cells (human) (Q9NP99 21-234): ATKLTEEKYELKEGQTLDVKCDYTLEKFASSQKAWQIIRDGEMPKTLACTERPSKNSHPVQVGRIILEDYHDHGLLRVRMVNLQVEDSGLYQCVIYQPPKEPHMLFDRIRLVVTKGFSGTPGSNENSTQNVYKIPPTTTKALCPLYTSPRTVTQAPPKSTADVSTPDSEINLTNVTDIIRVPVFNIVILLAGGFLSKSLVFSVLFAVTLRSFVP

[5] = molecular target: Type II PGLYRP1 on HEK293-6E cells (Example 15) (human); assay: flow cytometry on transfected HEK293-6E cells
Sequence of Type II PGLYRP1 on HEK293-6E cells (Example 15) (human) (chain, as listed by the source limits assumed, form in doubt): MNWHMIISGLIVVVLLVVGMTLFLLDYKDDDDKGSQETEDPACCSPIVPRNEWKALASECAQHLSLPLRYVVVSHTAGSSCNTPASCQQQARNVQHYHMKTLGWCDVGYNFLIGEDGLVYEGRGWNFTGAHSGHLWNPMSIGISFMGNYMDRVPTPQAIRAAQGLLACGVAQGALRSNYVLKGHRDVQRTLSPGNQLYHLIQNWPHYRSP

[6] = molecular target: Type II PGLYRP3 + 4 on HEK293-6E cells (human); assay: flow cytometry on transfected HEK293-6E cells
Sequence of Type II PGLYRP3 + 4 on HEK293-6E cells (human) (Q96LB9 other isoform, or with tags, fused parts or gaps, form in doubt, chain 1 of 2): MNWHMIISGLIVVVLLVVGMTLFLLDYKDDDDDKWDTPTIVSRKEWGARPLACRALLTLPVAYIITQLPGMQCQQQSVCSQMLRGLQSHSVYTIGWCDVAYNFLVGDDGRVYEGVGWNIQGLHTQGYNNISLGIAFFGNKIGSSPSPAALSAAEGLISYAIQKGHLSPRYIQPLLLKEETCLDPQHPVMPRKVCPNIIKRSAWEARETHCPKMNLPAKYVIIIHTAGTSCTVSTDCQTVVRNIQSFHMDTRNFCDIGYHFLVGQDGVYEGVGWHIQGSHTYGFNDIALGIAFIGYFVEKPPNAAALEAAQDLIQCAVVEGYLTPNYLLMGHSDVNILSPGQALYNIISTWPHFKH
Sequence of Type II PGLYRP3 + 4 on HEK293-6E cells (human) (Q96LB8 other isoform, or with tags, fused parts or gaps, form in doubt, chain 2 of 2, further chain): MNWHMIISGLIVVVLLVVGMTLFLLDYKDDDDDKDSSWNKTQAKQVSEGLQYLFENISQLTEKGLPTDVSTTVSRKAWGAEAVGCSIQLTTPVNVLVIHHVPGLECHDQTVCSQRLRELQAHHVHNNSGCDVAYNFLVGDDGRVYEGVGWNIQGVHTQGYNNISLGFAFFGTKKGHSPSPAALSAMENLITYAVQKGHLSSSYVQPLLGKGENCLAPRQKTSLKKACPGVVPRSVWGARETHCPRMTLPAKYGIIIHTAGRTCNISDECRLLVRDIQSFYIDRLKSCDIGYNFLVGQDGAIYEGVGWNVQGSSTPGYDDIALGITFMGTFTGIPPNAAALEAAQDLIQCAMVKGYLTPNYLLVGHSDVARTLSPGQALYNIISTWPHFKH

[7] = molecular target: Type II PGLYRP3 on HEK293-6E cells (human); assay: flow cytometry on transfected HEK293-6E cells
Sequence of Type II PGLYRP3 on HEK293-6E cells (human) (Q96LB9 other isoform, or with tags, fused parts or gaps, form in doubt): as the sequence (Q96LB9 other isoform, or with tags, fused parts or gaps, form in doubt, chain 1 of 2) above

[8] = molecular target: Type II PGLYRP1 on HEK293-6E cells (Example 15) (human); assay: flow cytometry on transfected HEK293-6E cells, probe 5 ug/ml; grade of MFI ratio over negative control (++++ is >30)
[9] = molecular target: TREM-1-interacting protein on PGN-stimulated neutrophils; assay: flow cytometry on PGN-stimulated neutrophils, 2 µg/ml probe, goat anti hFc/PE

Sequence of Type II 1.0 PGLYRP1 on HEK293 6E cells (human) (chain, as listed by the source limits assumed): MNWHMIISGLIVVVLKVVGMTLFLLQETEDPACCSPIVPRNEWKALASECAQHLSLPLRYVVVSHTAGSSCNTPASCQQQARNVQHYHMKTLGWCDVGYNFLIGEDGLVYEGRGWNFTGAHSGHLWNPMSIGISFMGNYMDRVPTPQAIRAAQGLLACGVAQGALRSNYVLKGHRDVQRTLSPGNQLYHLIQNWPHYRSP

| Substance | ratio of MFI of probe staining over negative control staining [5] | ratio of MFI of probe staining over negative control staining [6] | ratio of MFI of probe staining over negative control staining [7] | further results |
| --- | --- | --- | --- | --- |
| DCIR COMP (6HIS-SBP38x2-COMP-hDCIR) |  |  |  | % positive cells (TREM-1 tetramer staining with competitor) [1]: 41% |
| IsoAb (isotype control antibody of Example 18) |  |  |  | Activity of BWZ/hTREM1 reporter cells with Type II 1.0 PGLYRP1 transfectants (without antibody: 100%) [2]: 98% |
| TREM COMP (hTREM-1-COMP-SBP38x2-6HIS) |  |  |  | % positive cells (TREM-1 tetramer staining with competitor) [3]: 10% |
| Type II 1.0 PGLYRP1 on HEK293 6E cells (ligand) |  |  |  | Fold activity of BWZ/hTREM1 reporter cells co-incubated with transfected HEK293 6E cells, without PGN, against empty vector [4]: 24 fold |
| huTREM2.Fc dimer (C0248) (Fc fusion) | < 1 | < 1 | < 1 |  |
| huTREM-1.Fc dimer (C0099) (Fc fusion) |  | < 1 | < 1 | ratio of MFI of probe staining over negative control staining [8]: > 30 |
| huTREML1.Fc dimer (C0246) (Fc fusion) | < 1 | < 1 | < 1 |  |
| huTREML2.Fc dimer (C0247) (Fc fusion) | < 1 | < 1 | < 1 |  |
| human TREM-1-G4Sx3-TREM-1/Fc6mut (TREM-1 tetramer) (Fc fusion) |  |  |  | % positive cells [9]: 39% |

— US20150018528A1
